Laboratory results reported in patent US7018836 (UNIVERSITY OF IOWA RESEARCH FOUNDATION, dated 2006).

Target: T1, HIS-tagged human P-TEFb small subunit PITALRE (human, UniProt P50750 1-372)
T1 construct: also called HBS; HIS-tagged human kinase subunit (PITALRE)
Assay: co-expression in baculovirus, co-recovery with the HIS-tagged small subunit from a nickel column

T1 sequence (P50750 whole entry): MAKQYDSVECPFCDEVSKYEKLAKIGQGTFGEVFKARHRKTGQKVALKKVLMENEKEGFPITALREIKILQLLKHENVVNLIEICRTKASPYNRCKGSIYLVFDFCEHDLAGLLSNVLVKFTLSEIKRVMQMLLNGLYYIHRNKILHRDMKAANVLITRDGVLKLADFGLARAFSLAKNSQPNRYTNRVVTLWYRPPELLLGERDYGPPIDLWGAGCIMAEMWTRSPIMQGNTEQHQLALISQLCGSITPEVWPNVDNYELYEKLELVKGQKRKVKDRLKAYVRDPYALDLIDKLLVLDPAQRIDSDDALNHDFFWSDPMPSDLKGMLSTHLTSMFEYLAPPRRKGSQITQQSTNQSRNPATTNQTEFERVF

B1: Drosophila P-TEFb small subunit with a HIS-tag at the carboxyl-terminus (enzyme)
chain: MAHMSHMLQQPSGSTPSNVGSSSSRTMSLMEKQKYIEDYDFPYCDESNKYEKVAKIGQGTFGEVFKAREKKGNKKFVAMKKVLMDNEKEGFPITALREIRILQLLKHENVVNLIEICRTKATATNGYRSTFYLVFDFCEHDLAGLLSNMNVKFSLGEIKKVMQQLLNGLYYIHSNKILHRDMKAANVLITKHGILKLADFGLARAFSIPKNESKNRYTNRVVTLWYRPPELLLGDRNYGPPVDMWGAGCIMAEMWTRSPIMQGNTEQQQLTFISQLCGSFTPDVWPGVEELELYKSIELPKNQKRRVKERLRPYVKDQTGCDLLDKLLTLDPKKRIDADTALNHDFFWTDPMPSDLSKMLSQHLQSMFEYLAQPRRSNQMRNYHQQLTTMNQKPQDNSMIDRVW
notes: also called DBS; Drosophila P-TEFb small (kinase) subunit; not shown: HIS-tag added to the carboxyl-terminus
- binding result: no binding
